Reference: patent US20250002610A1 (Genmab, published 2025)

T1: pig FAPα on Expi293F cells (pig (Sus scrofa), UniProt A5D7B7 1-760 (bovine entry))
T1 chain: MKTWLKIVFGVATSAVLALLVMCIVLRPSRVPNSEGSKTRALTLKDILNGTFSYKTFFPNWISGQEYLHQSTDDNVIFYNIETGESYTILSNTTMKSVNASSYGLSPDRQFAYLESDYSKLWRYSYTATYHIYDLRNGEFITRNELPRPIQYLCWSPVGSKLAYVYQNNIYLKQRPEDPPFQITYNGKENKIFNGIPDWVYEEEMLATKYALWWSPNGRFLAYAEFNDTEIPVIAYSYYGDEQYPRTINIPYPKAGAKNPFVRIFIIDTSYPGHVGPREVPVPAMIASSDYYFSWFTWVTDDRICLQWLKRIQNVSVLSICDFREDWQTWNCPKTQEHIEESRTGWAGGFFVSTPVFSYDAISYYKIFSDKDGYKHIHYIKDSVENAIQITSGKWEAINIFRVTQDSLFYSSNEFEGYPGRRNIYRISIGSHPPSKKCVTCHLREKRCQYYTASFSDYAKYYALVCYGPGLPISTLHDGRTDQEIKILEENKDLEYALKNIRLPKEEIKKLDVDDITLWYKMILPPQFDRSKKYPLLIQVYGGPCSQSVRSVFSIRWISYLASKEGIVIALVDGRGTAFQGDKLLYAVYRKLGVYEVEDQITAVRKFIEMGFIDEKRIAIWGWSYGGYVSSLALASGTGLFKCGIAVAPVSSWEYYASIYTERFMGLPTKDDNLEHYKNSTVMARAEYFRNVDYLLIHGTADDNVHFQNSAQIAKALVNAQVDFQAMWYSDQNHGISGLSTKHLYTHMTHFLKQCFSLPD

T2: human DR4 (Death Receptor 4), cell surface expressed on human tumor cell lines (human, UniProt O00220 24-468)
T2 construct: also called TNFRSF10A; TRAIL-R1
T2 sequence: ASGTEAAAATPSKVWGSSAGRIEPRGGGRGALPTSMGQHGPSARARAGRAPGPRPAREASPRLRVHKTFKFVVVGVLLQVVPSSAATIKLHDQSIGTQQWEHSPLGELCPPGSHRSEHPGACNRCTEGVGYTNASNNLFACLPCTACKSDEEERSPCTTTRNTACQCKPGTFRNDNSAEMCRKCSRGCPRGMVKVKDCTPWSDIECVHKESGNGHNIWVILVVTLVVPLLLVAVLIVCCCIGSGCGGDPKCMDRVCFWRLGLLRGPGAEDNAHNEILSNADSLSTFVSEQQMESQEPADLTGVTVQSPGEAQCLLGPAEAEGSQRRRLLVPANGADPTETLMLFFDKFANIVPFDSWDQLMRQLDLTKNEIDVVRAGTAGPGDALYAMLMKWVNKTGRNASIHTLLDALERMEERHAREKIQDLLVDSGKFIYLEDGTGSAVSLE


Tests used:
[1] = molecular target: T1, pig FAPα on Expi293F cells; assay: flow cytometry on Expi293F cells transiently expressing pig FAPα, gMFI PE
Experimental: Binding of BisG1-FAPα-FERL/DR4-FERR, BisG1-FAPα-FEAL/b12-FEAR and IgG1-FAPα-FERL to FAPα of species commonly used for nonclinical toxicology studies was assessed by flow cytometry using Expi293F cells transiently expressing FAPα from different animal species. IgG1-b12 was included as negative control.
Expi293F cells expressing recombinant FAPα from various species (human, cynomolgus monkey, dog, pig, rat or mouse) were seeded (20,000 cells/well) in 96-Well round bottom plates (Greiner Bio-one, Cat #650101). Antibody dilutions were prepared using FACS buffer, consisting of PBS (Capricorn Scientific, Cat #PBS-10XA, diluted to 1×PBS in distilled water)+1% BSA (Roche, Cat #10735086001)+0.02% Sodium Azide (Bio-World, Cat #41920044-3). Plates were centrifuged, supernatant was removed, and cells were resuspended in 100 μL of antibody dilutions (concentration range 30-0.00017 μg/mL with three-fold serial dilutions using FACS buffer) of BisG1-FAPα-FERL/DR4-FERR, BisG1-FAPα-FEAL/b12-FEAR, IgG1-FAPα-FERL and IgG1-b12 and incubated for 30 min at 4° C. […] After 30 min incubation at 4° C., cells were washed with FACS buffer and resuspended in FACS buffer supplemented with TO-PRO-3 Iodide viability marker (Invitrogen, Cat #T3605, diluted 1:4,000). Antibody binding to viable cells (gMFI of PE on TO-PRO-3 negative cells) was analyzed by flow cytometry on a FACS Celesta and FACS_Diva software (first two experiments) or iQue® 3 and FlowJo software (last experiment). gMFI was determined and visualized using GraphPad Prism. Binding curves were analyzed using nonlinear regression analysis. The concentration (pg/mL) at which 50% of the maximal effect was observed (EC₅₀) was derived from the fitted curves.

[2] = molecular target: T2, human DR4 (Death Receptor 4), cell …; assay: flow cytometry, HCT-15 cells, n = 3
[3] = molecular target: T2, human DR4 (Death Receptor 4), cell …; assay: flow cytometry, HCT-116 cells, n = 2
[4] = molecular target: T2, human DR4 (Death Receptor 4), cell …; assay: flow cytometry, MDA-MB-231 cells, n = 2

Row | Binder | binding result [1] | EC50 (read off the curve) [1] | EC50 [2] | EC50 [3] | EC50 [4]
1 | BisG1-FAPα-FEAL/b12-FEAR (bispecific antibody, human IgG1, kappa, Fab-arm exchange of IgG1-FAPα-FEAL and IgG1-b12-FEAR) heavy 1: EVQLLESGGGLVQPGGSPRLSCEASGFTFSSYALSWVRQAPGKGLEWVSAISGSGGGRYYADSVKGRFTISRDNSKNTLFLQMNSLRAEDTAVYYCAKEGYSSSGTYWDHWGQGTLVTVSSASTKGPSVFPLAPSSKSTSGGTAALGCLVKDYFPEPVTVSWNSGALTSGVHTFPAVLQSSGLYSLSSVVTVPSSSLGTQTYICNVNHKPSNTKVDKRVEPKSCDKTHTCPPCPAPEFEGGPSVFLFPPKPKDTLMISRTPEVTCVVVAVSHEDPEVKFNWYVDGVEVHNAKTKPREEQYNSTYRVVSVLTVLHQDWLNGKEYKCKVSNKALPAPIEKTISKAKGQPREPQVYTLPPSREEMTKNQVSLTCLVKGFYPSDIAVEWESNGQPENNYKTTPPVLDSDGSFLLYSKLTVDKSRWQQGNVFSCSVMHEALHNHYTQKSLSLSPG light 1: AIQMTQSPSSVSASVGDRVTITCRASQGVSSWLAWYQQKPGRAPKLLIYVASTLQSGVPSRFSGSGSGTDFTLTINSLQPEDFATYYCQQANSFPPTFGQGTRLEMKRTVAAPSVFIFPPSDEQLKSGTASVVCLLNNFYPREAKVQWKVDNALQSGNSQESVTEQDSKDSTYSLSSTLTLSKADYEKHKVYACEVTHQGLSSPVTKSFNRGEC heavy 2: QVQLVQSGAEVKKPGASVKVSCQASGYRFSNFVIHWVRQAPGQRFEWMGWINPYNGNKEFSAKFQDRVTFTADTSANTAYMELRSLRSADTAVYYCARVGPYSWDDSPQDNYYMDVWGKGTTVIVSSASTKGPSVFPLAPSSKSTSGGTAALGCLVKDYFPEPVTVSWNSGALTSGVHTFPAVLQSSGLYSLSSVVTVPSSSLGTQTYICNVNHKPSNTKVDKRVEPKSCDKTHTCPPCPAPEFEGGPSVFLFPPKPKDTLMISRTPEVTCVVVAVSHEDPEVKFNWYVDGVEVHNAKTKPREEQYNSTYRVVSVLTVLHQDWLNGKEYKCKVSNKALPAPIEKTISKAKGQPREPQVYTLPPSREEMTKNQVSLTCLVKGFYPSDIAVEWESNGQPENNYKTTPPVLDSDGSFFLYSRLTVDKSRWQQGNVFSCSVMHEALHNHYTQKSLSLSPG light 2: EIVLTQSPGTLSLSPGERATFSCRSSHSIRSRRVAWYQHKPGQAPRLVIHGVSNRASGISDRFSGSGSGTDFTLTITRVEPEDFALYYCQVYGASSYTFGQGTKLERKRTVAAPSVFIFPPSDEQLKSGTASVVCLLNNFYPREAKVQWKVDNALQSGNSQESVTEQDSKDSTYSLSSTLTLSKADYEKHKVYACEVTHQGLSSPVTKSFNRGEC | binds | – | – | – | –
2 | IgG1-FAPα-FERL (antibody, Bivalent monoclonal IgG1 kappa) heavy: EVQLLESGGGLVQPGGSPRLSCEASGFTFSSYALSWVRQAPGKGLEWVSAISGSGGGRYYADSVKGRFTISRDNSKNTLFLQMNSLRAEDTAVYYCAKEGYSSSGTYWDHWGQGTLVTVSSASTKGPSVFPLAPSSKSTSGGTAALGCLVKDYFPEPVTVSWNSGALTSGVHTFPAVLQSSGLYSLSSVVTVPSSSLGTQTYICNVNHKPSNTKVDKRVEPKSCDKTHTCPPCPAPEFERGPSVFLFPPKPKDTLMISRTPEVTCVVVDVSHEDPEVKFNWYVDGVEVHNAKTKPREEQYNSTYRVVSVLTVLHQDWLNGKEYKCKVSNKALPAPIEKTISKAKGQPREPQVYTLPPSREEMTKNQVSLTCLVKGFYPSDIAVEWESNGQPENNYKTTPPVLDSDGSFLLYSKLTVDKSRWQQGNVFSCSVMHEALHNHYTQKSLSLSPG light: AIQMTQSPSSVSASVGDRVTITCRASQGVSSWLAWYQQKPGRAPKLLIYVASTLQSGVPSRFSGSGSGTDFTLTINSLQPEDFATYYCQQANSFPPTFGQGTRLEMKRTVAAPSVFIFPPSDEQLKSGTASVVCLLNNFYPREAKVQWKVDNALQSGNSQESVTEQDSKDSTYSLSSTLTLSKADYEKHKVYACEVTHQGLSSPVTKSFNRGEC | – | ~0.3 µg/mL | – | – | –
3 | BisG1-b12-FERL/DR4-FERR (bispecific antibody, human IgG1, kappa, lambda, Fab-arm exchange of IgG1-b12-FERL and IgG1-DR4-FERR; also called bsIgG1-ctrl-FERLxDR4-FERR) heavy 1: QVQLVQSGAEVKKPGASVKVSCQASGYRFSNFVIHWVRQAPGQRFEWMGWINPYNGNKEFSAKFQDRVTFTADTSANTAYMELRSLRSADTAVYYCARVGPYSWDDSPQDNYYMDVWGKGTTVIVSSASTKGPSVFPLAPSSKSTSGGTAALGCLVKDYFPEPVTVSWNSGALTSGVHTFPAVLQSSGLYSLSSVVTVPSSSLGTQTYICNVNHKPSNTKVDKRVEPKSCDKTHTCPPCPAPEFERGPSVFLFPPKPKDTLMISRTPEVTCVVVDVSHEDPEVKFNWYVDGVEVHNAKTKPREEQYNSTYRVVSVLTVLHQDWLNGKEYKCKVSNKALPAPIEKTISKAKGQPREPQVYTLPPSREEMTKNQVSLTCLVKGFYPSDIAVEWESNGQPENNYKTTPPVLDSDGSFLLYSKLTVDKSRWQQGNVFSCSVMHEALHNHYTQKSLSLSPG light 1: EIVLTQSPGTLSLSPGERATFSCRSSHSIRSRRVAWYQHKPGQAPRLVIHGVSNRASGISDRFSGSGSGTDFTLTITRVEPEDFALYYCQVYGASSYTFGQGTKLERKRTVAAPSVFIFPPSDEQLKSGTASVVCLLNNFYPREAKVQWKVDNALQSGNSQESVTEQDSKDSTYSLSSTLTLSKADYEKHKVYACEVTHQGLSSPVTKSFNRGEC heavy 2: QVQLQESGPGLVKPSGTLSLTCAVSGGSISSYSWWSWIRQPPGKGLEWIGELYHSGSTNYNPSLKSRVTISVDKSKNQFSLKLRSVTAADTAVYYCVRGVATIDYWGQGTLVTVSSASTKGPSVFPLAPSSKSTSGGTAALGCLVKDYFPEPVTVSWNSGALTSGVHTFPAVLQSSGLYSLSSVVTVPSSSLGTQTYICNVNHKPSNTKVDKRVEPKSCDKTHTCPPCPAPEFERGPSVFLFPPKPKDTLMISRTPEVTCVVVDVSHEDPEVKFNWYVDGVEVHNAKTKPREEQYNSTYRVVSVLTVLHQDWLNGKEYKCKVSNKALPAPIEKTISKAKGQPREPQVYTLPPSREEMTKNQVSLTCLVKGFYPSDIAVEWESNGQPENNYKTTPPVLDSDGSFFLYSRLTVDKSRWQQGNVFSCSVMHEALHNHYTQKSLSLSPG light 2: QSALTQPPSASGSPGQSVTISCTGTSSDVGGYNFVSWYQQDPGKAPKLLIYEVTKRPSGVPDRFSGSKSGNTASLTVSGLQAEDEADYYCSSYAGSNNVMFGGGTKLTVLGQPKAAPSVTLFPPSSEELQANKATLVCLISDFYPGAVTVAWKADSSPVKAGVETTTPSKQSNNKYAASSYLSLTPEQWKSHRSYSCQVTHEGSTVEKTVAPTECS | – | – | 0.53 µg/mL | 0.65 µg/mL | 1 µg/mL
4 | IgG1-DR4-FERR (antibody, V domains shown, Bivalent monoclonal IgG1 lambda) VH: QVQLQESGPGLVKPSGTLSLTCAVSGGSISSYSWWSWIRQPPGKGLEWIGELYHSGSTNYNPSLKSRVTISVDKSKNQFSLKLRSVTAADTAVYYCVRGVATIDYWGQGTLVTVSS VL: QSALTQPPSASGSPGQSVTISCTGTSSDVGGYNFVSWYQQDPGKAPKLLIYEVTKRPSGVPDRFSGSKSGNTASLTVSGLQAEDEADYYCSSYAGSNNVMFGGGTKLTVLG | – | – | 0.15 µg/mL | 0.16 µg/mL | 0.27 µg/mL
